Results taken from US9872893B2, “Endolysins active against Staphylococcus bacteria, pharmaceutical compositions, and methods relating thereto” (priority 2014, dated 2018).

Test system: S. aureus NRS-14 peptidoglycan
Experiment: dinitrosalicylic acid (DNSA) assay for reducing sugars
Type: biochemical, Staphylococcus aureus
Conditions: 50 μg/ml, one hour, 37° C.

B1: PlyGRCS: endolysin of bacteriophage GRCS (ORF15), amino acids 1-250, SEQ ID NO: 5, C-terminal 6× His tag (protein)
chain: MKSQQQAKEWIYKHEGTGVDFDGAYGFQCMDLAVAYVYYITDGKVRMWGNAKDAINNDFKGLATVYENTPSFKPQLGDVAVYTNSQYGHIQCVISGNLDYYTCLEQNWLGGGFDGWEKATIRTHYYDGVTHFIRPKFSASNSNVLETSKVNTFGNWKQNQYGTYYRNENATFTCGFLPIFARVGSPKLSEPNGYWFQPNGYTPYDEVCLSDGLVWIGYNWQGTRYYLPVRQWNGKTGNSYSIGLPWGVFS
modifications: C-terminal 6xHis tag; Synthetically generated polypeptide (PlyGRCS phage (S. aureus))
  glycosidase activity (reducing sugar release): did not show any glycosidase activity
